The data set addresses RIN (RIPENING INHIBITOR, MADS box) (Solanum lycopersicum, UniProt Q8S4L4 1-242). The data set can be described thus: EMSA; 10 mM MgCl2; 20 mM HEPES pH 7.5, 20% glycerol, 0.05 ug poly(dI-dC), 10 mM MgCl2, 2.5 mM EDTA, 2.5 mM DTT, 25 mM NaCl, 25 C, 30 min; 6% native PAGE 0.5x TBE. The following applies: protein: recombinant; chain copies: 2; label: 32P (alpha-32P dCTP Klenow fill-in); filled-in ends. (In general: A gel shift assay detects complexes by their altered migration in electrophoresis.)

Chain of RIN (RIPENING INHIBITOR, MADS box) (Q8S4L4 entry or part of it): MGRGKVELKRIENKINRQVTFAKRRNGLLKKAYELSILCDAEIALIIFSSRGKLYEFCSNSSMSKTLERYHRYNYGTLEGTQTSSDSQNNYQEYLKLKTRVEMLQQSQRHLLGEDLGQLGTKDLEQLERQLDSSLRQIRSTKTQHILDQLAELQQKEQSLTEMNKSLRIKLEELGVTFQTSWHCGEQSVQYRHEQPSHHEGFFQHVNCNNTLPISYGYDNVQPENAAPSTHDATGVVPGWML

B1: alpha-Man promoter fragment MD4 (187 bp) (dsDNA)
DNA 1: GAAGACTTCACAAATCTTGATTTTTGAATACGACCCTTTAGTATTAAGTTTTCCAATTAATCTTGTAGGTCCATTGGCTTTGATTCCCTTTCTTGATTTATCTACAAAAATTTAGGCTATTTATAGAGATTTGGGGTTTATGGTTTAGTACATTCTCTTTCAGTGAACACTCTCAGCAATGGTGGAA
DNA 2: TTCCACCATTGCTGAGAGTGTTCACTGAAAGAGAATGTACTAAACCATAAACCCCAAATCTCTATAAATAGCCTAAATTTTTGTAGATAAATCAAGAAAGGGAATCAAAGCCAATGGACCTACAAGATTAATTGGAAAACTTAATACTAAAGGGTCGTATTCAAAAATCAAGATTTGTGAAGTCTTC
In the case of B1, the binding result is recorded as “binds”.

The values above are taken from article PMC4720780, “Fruit Ripening Regulation of α-Mannosidase Expression by the MADS Box Transcription Factor RIPENING INHIBITOR and Ethylene”.
